In patent US20190359687A1 (Bayer, published 2019):

T1: human glycophorin A on human red blood cells or red blood cell membranes (human, UniProt P02724 20-150)
T1 construct: whole, on cells; also called hRBC; human RBC membranes
T1 sequence (looked up): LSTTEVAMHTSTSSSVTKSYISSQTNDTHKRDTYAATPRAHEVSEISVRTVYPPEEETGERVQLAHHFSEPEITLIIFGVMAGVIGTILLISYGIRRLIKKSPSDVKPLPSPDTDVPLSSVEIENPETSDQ

T2: native human glycophorin A protein (human, UniProt P02724 20-150)
T2 construct: mature; also called Hu-nat GPA
T2 sequence (looked up): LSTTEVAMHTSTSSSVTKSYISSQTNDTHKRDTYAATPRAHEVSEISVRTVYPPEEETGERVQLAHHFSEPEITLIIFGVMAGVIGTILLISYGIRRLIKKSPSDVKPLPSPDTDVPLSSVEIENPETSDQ

T3: recombinant human glycophorin A ectodomain protein (human, UniProt P02724 20-91)
T3 construct: 72 amino acids of the extracellular region; also called Hu-rec GPA
T3 sequence: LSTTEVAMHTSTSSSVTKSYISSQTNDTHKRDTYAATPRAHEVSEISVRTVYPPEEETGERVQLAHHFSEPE


Columns and labels:
[1] = molecular target: T1, human glycophorin A on human red blood …; experiment: SPR (Biacore), Fab on human RBC membranes;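 also: human RBC membranes captured on an L1 sensor chip, Fab fragments passed over as analyte, binding kinetics read by surface plasmon resonance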
Description: (§1) Kinetic analysis of the antibody binding to human red blood cell membranes was also performed using surface plasmon resonance (SPR) using a Biacore instrument. In this assay membranes prepared from human red blood cells were attached to a L1 sensor matrix and antibodies were flowed over the RBC membranes.
(§2) The binding kinetics of the affinity matured Fab antibodies was also measured.

[2] = molecular target: T4, Cynomolgus monkey glycophorin A on Cynomolgus monkey red blood cells or red blood cell membranes (Cynomolgus monkey); experiment: Fab 7 ug/ml on intact cyno RBC, unbound Fab by ELISA; pre-dilution
T4 construct: whole, on cells; also called Cyno RBC; Cynomolgus monkey RBC membranes

[3] = molecular target: T1, human glycophorin A on human red blood …; experiment: Fab 7 ug/ml on intact human RBC, unbound Fab by ELISA; pre-dilution
[4] = molecular target: T1, human glycophorin A on human red blood …; experiment: SPR (Biacore), Fab on human RBC membranes; T½ = 0.69/kd; * not accurate;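 as to kon: human RBC membranes captured on an L1 sensor chip, Fab fragments passed over as analyte, binding kinetics read by surface plasmon resonance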
Description: as §1, §2

[5] = molecular target: T1, human glycophorin A on human red blood …; experiment: SPR (Biacore), Fab on human RBC membranes; * not accurate, instrument limit
Description: as §1, §2

[6] = molecular target: T4, Cynomolgus monkey glycophorin A on …; experiment: Fab on intact cyno RBC, unbound Fab by ELISA; 0 min after 200-fold dilution
Description: (§3) The binding of affinity matured Fab antibodies to intact Cynomolgus monkey RBC was measured. Cynomolgus monkey RBC were isolated from fresh anti-coagulated blood by centrifugation through a ficol gradient and washing in PBS buffer. RBC diluted to 1/10th of normal hematocrit were incubated with the Fab at a final concentration of 7 ug/ml for 1 hour at room temperature on a rotating shaker after which a sample was taken and the RBC were pelleted by centrifugation and the supernatant was collected. The remaining RBC suspension was diluted 200-fold in PBS buffer and incubated for a total of 2 hours at room temperature on a rotating shaker and samples were removed at 0, 5 min, 20 min, 1 h and 2 h and the RBC pelleted and the supernatant collected. […] The amount of Fab in the supernatants was then measured using an ELISA assay and the results used to calculate the percentage of the input Fab that was bound to the RBC.

[7] = molecular target: T4, Cynomolgus monkey glycophorin A on …; experiment: Fab on intact cyno RBC, unbound Fab by ELISA; 5 min after 200-fold dilution
[8] = molecular target: T1, human glycophorin A on human red blood …; experiment: Fab on intact human RBC, unbound Fab by ELISA; 0 min after 200-fold dilution
Description: (§4) The binding of affinity matured Fab antibodies to intact human RBC was also measured. Human RBC were isolated from fresh anti-coagulated normal human blood by centrifugation through a ficol gradient and washing in PBS buffer. RBC diluted to 1/10th of normal hematocrit were incubated with purified Fab antibodies at a final concentration of 7 ug/ml for 1 hour at room temperature on a rotating shaker after which a sample was taken and the RBC were pelleted by centrifugation and the supernatant was collected. The remaining RBC suspension was diluted 200-fold in PBS buffer and incubated for a total of 2 hours at room temperature on a rotating shaker and samples were removed at 0, 5 min, 20 min, 1 h and 2 h and the RBC pelleted and the supernatant collected. The amount of Fab in the supernatants was then measured using an ELISA assay and the results used to calculate the percentage of the input Fab that was bound to the RBC. […] The percentage that remains bound after 200-fold dilution of the RBC suspension is an indication of the overall strength of the binding to human RBC.

[9] = molecular target: T1, human glycophorin A on human red blood …; experiment: Fab on intact human RBC, unbound Fab by ELISA; 5 min after 200-fold dilution
[10] = molecular target: T4, Cynomolgus monkey glycophorin A on …; experiment: Fab on intact cyno RBC, unbound Fab by ELISA; 20 min after 200-fold dilution
[11] = molecular target: T4, Cynomolgus monkey glycophorin A on …; experiment: Fab on intact cyno RBC, unbound Fab by ELISA; 60 min after 200-fold dilution
Description: as §3

[12] = molecular target: T1, human glycophorin A on human red blood …; experiment: Fab on intact human RBC, unbound Fab by ELISA; 20 min after 200-fold dilution
Description: as §4

[13] = molecular target: T1, human glycophorin A on human red blood …; experiment: Fab on intact human RBC, unbound Fab by ELISA; 60 min after 200-fold dilution
Description: as §4

[14] = molecular target: T4, Cynomolgus monkey glycophorin A on …; experiment: Fab on intact cyno RBC, unbound Fab by ELISA; 120 min after 200-fold dilution
[15] = molecular target: T1, human glycophorin A on human red blood …; experiment: Fab on intact human RBC, unbound Fab by ELISA; 120 min after 200-fold dilution
[16] = molecular target: T2, native human glycophorin A protein; experiment: ELISA, Fab on coated native human GPA
[17] = molecular target: T1, human glycophorin A on human red blood …; experiment: ELISA, Fab on coated human RBC membranes
Description: These membranes are prepared by first isolating red blood cells from citrated whole blood. Citrated whole blood is layered on to Ficol and centrifuged at low speed for 20 minutes to pellet the red blood cells. The supernatant containing plasma and other blood cells is discarded and the red blood cell pellet is subsequently washed 3 times in 10 cell volumes of phosphate buffered saline (PBS). A 10 ml pellet of purified red blood cells is resuspended in 30 ml of cold low osmorality 20 mM phosphate buffer (pH7.4) and incubated for 30 mins to break open the RBC. After Centrifugation at 10,000 rpm for 30 min at 5° C. the hemoglobin containing supernatant is discarded. To the membrane pellet another 30 ml of 20 mM phosphate buffer is added and the sample centrifuged again at 10,000 rpm for 30 min at 5° C. to pellet the membrane fraction. This wash and centrifugation step is repeated another 4 times. The red blood cell membranes are then resuspended in 20 mL of PBS to achieve an equivalent of approximately 2.5E9 cells/mL and stored frozen at −20° C. Binding of antibodies to RBC ghost can be measured by ELISA in which the RBC ghost suspension (5×10⁶ in 100 ul PBS) was added to each well of flat bottom 96-well ELISA microtiter plates (2HB, Immunolon) and the plates incubated overnight at 4° C. The plates were blocked with Starting blocking buffer (Thermo Fisher) for 2 hours at room temperature (RT). Antibodies or other test molecules were added to each well and incubated for 1.5 hours at RT. After 4 washes 100 ul of an appropriate detection antibody was added to each well and incubated for 1 hour at RT. After 4 washes the detection antibody was measured using appropriate detection reagents.

[18] = molecular target: T5, Cynomolgus monkey recombinant glycophorin A ectodomain (Cynomolgus monkey); experiment: ELISA, Fab on coated recombinant cyno GPA ectodomain
T5 construct: extracellular domain

[19] = molecular target: T3, recombinant human glycophorin A …; experiment: ELISA, Fab on coated recombinant human GPA ectodomain
[20] = molecular target: T1, human glycophorin A on human red blood …; experiment: SPR (Biacore), Fab over human RBC membranes, 1:1 fit; * slight deviation possible
Description: as §1

[21] = molecular target: T4, Cynomolgus monkey glycophorin A on …; experiment: ELISA, Fab on coated cyno RBC membranes
[22] = molecular target: T1, human glycophorin A on human red blood …; experiment: SPR (Biacore), Fab over human RBC membranes, 1:1 fit;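 also: human RBC membrane preparations captured on an L1 sensor surface, with antibody passed over them as analyte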
Description: as §1

Binder | percentage of input antibody bound [2] [%] | percentage of input antibody bound [3] [%] | Estimated T½ [4] [days] | Kd [5] [nM] | koff [5] [s⁻¹] | percentage of input antibody bound [6] [%] | percentage of input antibody bound [7] [%] | percentage of input antibody bound [8] [%] | percentage of input antibody bound [9] [%] | percentage of input antibody bound [10] [%] | percentage of input antibody bound [11] [%] | percentage of input antibody bound [12] [%] | percentage of input antibody bound [13] [%] | percentage of input antibody bound [14] [%] | percentage of input antibody bound [15] [%] | binding in ELISA relative to parental Fab [16] | binding in ELISA relative to parental Fab [17] | binding in ELISA relative to parental Fab [18] | binding in ELISA relative to parental Fab [19] | binding in ELISA relative to parental Fab [21] | other results
TPP-7783, affinity matured 6C12 Fab (Fab, V domains shown, Tested as Fab) VH: EVQLVQSGAEVKKPGASVKVSCKASGYTFTTYAIHWVRQAPGQGLEWMGYINPSSGYTRYNPKFKHRVTMTRDKSTSTAYMELRSLRSDDTAVYYCWTGTRDYWGQGTTVTVSS VL: DIQLTQSPSFLSASVGDRVTITCRASSSVRYIYWFQQKPGKAPKLLIYATSFRRSGVPSRFSGSGSGTEYTLTISSLQPEDFATYYCHQRNSFPYTFGQGTKLEIK | 72 | 90 | 33 | 0.000904 | 2.42e-07 | 60 | 62 | 87 | 86 | 62 | 64 | 86 | 84 | 56 | 85 |  |  |  |  |  | kon [1]: 267000 M⁻¹ s⁻¹
TPP-4935, humanized 6C12 parental Fab (Hu6C12-24) (Fab, V domains shown, also called parent Fab; TPP-4935 (Parental)) VH: EVQLVQSGAEVKKPGASVKVSCKASGYTFTTYTIHWVRQAPGQGLEWIGYINPSSDYTRYNPKFKDRVTLTTDKSTSTAYMELRSLRSDDTAVYYCQTGTRDYWGQGTTVTVSS VL: DIQLTQSPSFLSASVGDRVTITCSAASSVSYIYWFQQKPGKAPKLLIYSTSTLPSGVPSRFSGSGSGTEYTLTISSLQPEDFATYYCHQRNSFPFTFGQGTKLEIKR |  |  |  |  |  |  |  |  |  |  |  |  |  |  |  | 1 relative to parental Fab | 1 relative to parental Fab | 1 relative to parental Fab | 1 relative to parental Fab |  | Kd [20]: 167 nM; koff [20]: 0.031 s⁻¹; kon [20]: 190000 M⁻¹ s⁻¹
TPP-5907, humanized and germlined 6C12 Fab; VL: (S24R, A26S, S49A, P54Q, F95Y); VH: (I48M, S54G, D56G, D66G, L70M, T72R) (Fab, V domains shown) VH: EVQLVQSGAEVKKPGASVKVSCKASGYTFTTYTIHWVRQAPGQGLEWMGYINPGSGYTRYNPKFKGRVTMTRDKSTSTAYMELRSLRSDDTAVYYCQTGTRDYWGQGTTVTVSS VL: DIQLTQSPSFLSASVGDRVTITCRASSSVSYIYWFQQKPGKAPKLLIYATSTLQSGVPSRFSGSGSGTEYTLTISSLQPEDFATYYCHQRNSFPYTFGQGTKLEIKR |  |  |  |  |  |  |  |  |  |  |  |  |  |  |  | 12.3 relative to parental Fab | 90.1 relative to parental Fab | 1.4 relative to parental Fab | 6.9 relative to parental Fab | 1.9 relative to parental Fab | Kd [22]: 0.8 nM; koff [22]: 0.004 s⁻¹; kon [22]: 4.9e+06 M⁻¹ s⁻¹
TPP-7797, affinity matured 6C12 Fab (Fab, V domains shown, Tested as Fab) VH: EVQLVQSGAEVKKPGASVKVSCKASGYTFTTYTIHWVRQAPGQGLEWMGYINPSSGYTRYNPKFKGRVTMTRDKSTSTAYMELRSLRSDDTAVYYCWTGRRDYWGQGTTVTVSS VL: DIQLTQSPSFLSASVGDRVTITCRASSSVRYIYWFQQKPGKAPKLLIYATSFRQSGVPSRFSGSGSGTEYTLTISSLQPEDFATYYCHQRNSFPYTFGQGTKLEIK | 79 | 97 | 0.487 | 0.000253 | 1.64e-05 | 81 | 66 | 96 | 95 | 59 | 56 | 94 | 94 | 50 | 92 |  |  |  |  |  | kon [5]: 6.49e+07 M⁻¹ s⁻¹
TPP-7794, affinity matured 6C12 Fab (Fab, V domains shown, Tested as Fab) VH: EVQLVQSGAEVKKPGASVKVSCKASGYTFTTYAIHWVRQAPGQGLEWMGYINPSSGYTRYNPKFKHRVTMTRDKSTSTAYMELRSLRSDDTAVYYCWTGTRDYWGQGTTVTVSS VL: DIQLTQSPSFLSASVGDRVTITCRASSSVRYIYWFQQKPGKAPKLLIYATSFRQSGVPSRFSGSGSGTEYTLTISSLQPEDFATYYCHQRNSFPYTFGQGTKLEIK | 73 | 93 | 922 | < 0.01 | < 2e-05 | 67 | 66 | 92 | 91 | 65 | 67 | 90 | 90 | 57 | 90 |  |  |  |  |  | kon [5]: 2.22e+07 M⁻¹ s⁻¹
TPP-5841, Hu6C12-24 Fab variant VL: (S24R, A26S, S49A, P54Q, F95Y); VH: (D66G, L70M) (Fab, V domains shown, Built on the parental Fab TPP-4935) VH: EVQLVQSGAEVKKPGASVKVSCKASGYTFTTYTIHWVRQAPGQGLEWIGYINPSSDYTRYNPKFKGRVTMTTDKSTSTAYMELRSLRSDDTAVYYCQTGTRDYWGQGTTVTVSS VL: DIQLTQSPSFLSASVGDRVTITCRASSSVSYIYWFQQKPGKAPKLLIYATSTLQSGVPSRFSGSGSGTEYTLTISSLQPEDFATYYCHQRNSFPYTFGQGTKLEIKR |  |  |  |  |  |  |  |  |  |  |  |  |  |  |  | 5.8 relative to parental Fab | 11.9 relative to parental Fab | 1.2 relative to parental Fab | 4.7 relative to parental Fab | 2.1 relative to parental Fab | Kd [22]: 3.3 nM; koff [22]: 0.0043 s⁻¹; kon [22]: 1.3e+06 M⁻¹ s⁻¹
